Source: patent US20260258117A1 (ACADEMISCH ZIEKENHUIS LEIDEN H O D N LUMC, published 2026)
Blank lines part the entries; values can stand above or below the binder they belong to.

Assays:
[1] = target: T1, Complement Factor H protein (human, UniProt P08603 19-1231); assay: bispecific ELISA
T1 construct: Plasma protein, bought purified or present in normal human serum; also called FH; CFH
Protocol: BsAbs were tested for binding to both antigens in a bispecific ELISA. MaxiSorp plates (Thermo Scientific, Nunc, 430341) were coated with 50 μL/well BSA-DNP (10 μg/mL, Biosearch Technologies, D-5050-10, conjugation ration 13) in coating buffer (0.1 M Na₂CO₃/NaHCO₃PH 9.6) for 1 hour at 37° C. After every incubation, plates were washed three times with PBS/0.05% Tween 20. Plates were blocked with 100 μL/well PBS/1% BSA for 1 hour at 37° C. After washing, plates were incubated with 50 μL/well (bs) Abs diluted in PBS/0.05% Tween 20/1% BSA (PTB buffer) for 1 hour at 37° C. Next, 1 μg/mL FH (CompTech, A137) or C4BP (CompTech, A109) diluted in PTB buffer was added. FH was detected using goat anti-human FH (Quidel, A312) and HRP-labeled rabbit anti-goat Ig (Dako, P0449), and C4BP was detected using rabbit anti-human C4BP (kind gift from Anna M. Blom, Malmö, Sweden) and HRP-labeled goat anti-rabbit Ig (Dako, P0448), all diluted in PTB buffer. Plates were developed by incubating with 50 μL/well ABTS (Merck, A1888-5G) containing 1:2000 diluted H₂O₂ (Merck, 1072090250), and read at 415 nm using a microplate reader (BIO-RAD iMark). It was confirmed by ELISA that the bsAbs can bind to a specific target (e.g., DNP as a model antigen) as well as FH or C4BP, whereas the parental monospecific antibodies cannot (FIG. 1A).

[2] = target: T1, Complement Factor H protein; assay: flow cytometry, FH detected on Ramos cells treated with bsAb and normal human serum
Protocol: Ramos cells (originally from ATCC) were plated at 100,000 cells/well (V-bottom microplate, Greiner Bio-One, 651101). Cells were incubated with 100 μL/well samples containing 0.3 μg/mL anti-CD20 wild-type with or without 20 μg/mL bsAbs (anti-FH x anti-HLA I and controls) with or without 10 μg/mL FH for 30 minutes. After every incubation, cells were washed with 150 μL/well PBS/1% FCS. Cells were incubated with 100 μL/well 10% NHS in RPMI (for FH detection in the presence of 50 μg/mL eculizumab) for 45 minutes at 37° C. Cell viability was measured by adding 100 μL/well 7-AAD (BD Pharmingen, 559925) 1:200 diluted in PBS/1% FCS. FH was detected using mouse anti-human FH (1:100, OX-23, generated in-house) and goat anti-mouse IgG AF488 (1:50, Life Technologies, A11001). Cells were measured using a FACSCanto flow cytometer (BD Biosciences).

[3] = target: T2, C4b-binding protein (human, UniProt P04003 49-597; P20851 18-252); assay: bispecific ELISA and complement activation assay on biotinylated BSA-DNP, C4BP detected
T2 construct: also called C4BP
T2 sequence (looked up) 1: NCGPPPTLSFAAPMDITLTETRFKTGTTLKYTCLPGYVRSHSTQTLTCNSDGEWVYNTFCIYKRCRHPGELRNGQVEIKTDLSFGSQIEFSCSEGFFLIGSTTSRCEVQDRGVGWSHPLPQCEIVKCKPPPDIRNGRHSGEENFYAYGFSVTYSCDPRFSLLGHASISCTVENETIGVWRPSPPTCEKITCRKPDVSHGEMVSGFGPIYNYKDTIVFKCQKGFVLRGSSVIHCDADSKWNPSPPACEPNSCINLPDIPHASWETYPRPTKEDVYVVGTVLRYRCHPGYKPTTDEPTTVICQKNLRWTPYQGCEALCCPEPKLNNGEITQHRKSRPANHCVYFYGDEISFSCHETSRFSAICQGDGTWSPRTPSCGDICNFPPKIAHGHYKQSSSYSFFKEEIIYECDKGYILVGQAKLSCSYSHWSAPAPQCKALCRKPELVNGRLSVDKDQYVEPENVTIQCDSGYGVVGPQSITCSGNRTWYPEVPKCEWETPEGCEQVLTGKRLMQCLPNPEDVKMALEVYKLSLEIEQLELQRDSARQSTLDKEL
T2 sequence (looked up) 2: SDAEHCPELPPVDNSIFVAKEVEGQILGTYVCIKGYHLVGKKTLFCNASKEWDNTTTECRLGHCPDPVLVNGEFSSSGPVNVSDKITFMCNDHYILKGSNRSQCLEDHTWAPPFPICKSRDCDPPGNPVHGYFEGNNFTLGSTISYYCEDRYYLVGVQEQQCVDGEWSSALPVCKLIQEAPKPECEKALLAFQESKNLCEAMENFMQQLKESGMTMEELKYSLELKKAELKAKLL

T1 sequence (P08603 19-1231 limits assumed): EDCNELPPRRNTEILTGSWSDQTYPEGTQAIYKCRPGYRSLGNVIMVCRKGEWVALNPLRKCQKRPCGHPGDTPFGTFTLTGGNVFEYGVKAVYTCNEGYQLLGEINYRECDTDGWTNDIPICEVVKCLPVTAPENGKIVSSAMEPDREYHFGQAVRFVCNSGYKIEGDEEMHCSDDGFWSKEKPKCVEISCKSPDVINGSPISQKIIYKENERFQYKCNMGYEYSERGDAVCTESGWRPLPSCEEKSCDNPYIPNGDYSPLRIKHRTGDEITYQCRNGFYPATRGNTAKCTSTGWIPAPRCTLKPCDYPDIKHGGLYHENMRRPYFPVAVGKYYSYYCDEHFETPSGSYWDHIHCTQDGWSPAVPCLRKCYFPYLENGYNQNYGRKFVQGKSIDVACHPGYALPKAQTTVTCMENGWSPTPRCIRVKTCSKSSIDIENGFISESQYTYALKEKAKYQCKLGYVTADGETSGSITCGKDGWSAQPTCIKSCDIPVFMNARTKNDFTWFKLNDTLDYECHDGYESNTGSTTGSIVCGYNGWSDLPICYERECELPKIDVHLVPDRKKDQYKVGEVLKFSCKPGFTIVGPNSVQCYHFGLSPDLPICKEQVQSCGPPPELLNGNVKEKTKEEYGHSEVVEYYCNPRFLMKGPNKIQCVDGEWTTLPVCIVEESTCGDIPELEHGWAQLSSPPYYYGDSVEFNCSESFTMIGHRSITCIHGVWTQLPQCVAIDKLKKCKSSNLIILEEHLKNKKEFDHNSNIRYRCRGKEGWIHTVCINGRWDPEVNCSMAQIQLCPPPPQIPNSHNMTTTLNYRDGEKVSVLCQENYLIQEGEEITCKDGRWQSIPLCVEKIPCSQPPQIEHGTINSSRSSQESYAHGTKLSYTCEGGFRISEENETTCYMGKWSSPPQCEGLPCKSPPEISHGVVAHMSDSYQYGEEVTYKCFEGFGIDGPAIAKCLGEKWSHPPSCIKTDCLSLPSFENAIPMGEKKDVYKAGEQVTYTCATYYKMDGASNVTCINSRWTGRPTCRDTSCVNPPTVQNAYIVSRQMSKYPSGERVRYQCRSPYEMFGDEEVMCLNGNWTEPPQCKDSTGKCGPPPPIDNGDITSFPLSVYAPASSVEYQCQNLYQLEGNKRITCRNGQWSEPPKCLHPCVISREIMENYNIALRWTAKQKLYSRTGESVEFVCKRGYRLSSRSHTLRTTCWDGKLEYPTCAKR

binding result [1]: binds
B1: Anti-FH F405L LALAPG, Anti-DNP K409R LALAPG (bispecific antibody, human IgG1, kappa, L234A L235A)
heavy 1: EVQLQQSGPELVKPGASVKISCKASGYSFTGYFIHWVKQSHVKSLEWFGRINPYNGATDYNQNFKDKAILTIDESSSTAYMEIHSLTSDDSAVYYCARGLFLDYWGQGTTLTVSSASTKGPSVFPLAPSSKSTSGGTAALGCLVKDYFPEPVTVSWNSGALTSGVHTFPAVLQSSGLYSLSSVVTVPSSSLGTQTYICNVNHKPSNTKVDKRVEPKSCDKTHTCPPCPAPEAAGGPSVFLFPPKPKDTLMISRTPEVTCVVVDVSHEDPEVKFNWYVDGVEVHNAKTKPREEQYNSTYRVVSVLTVLHQDWLNGKEYKCKVSNKALGAPIEKTISKAKGQPREPQVYTLPPSREEMTKNQVSLTCLVKGFYPSDIAVEWESNGQPENNYKTTPPVLDSDGSFLLYSKLTVDKSRWQQGNVFSCSVMHEALHNHYTQKSLSLSPGK
light 1: DILMTQSPSSMSVSLGDTVSITCHASQGITSNIGWLQQKPGKSFKGLIYHGTNLEDGVPSRFSGSGSGADYSLTISSLESEDFADYYCVQYAQFPWTFGGGTKLEIKRTVAAPSVFIFPPSDEQLKSGTASVVCLLNNFYPREAKVQWKVDNALQSGNSQESVTEQDSKDSTYSLSSTLTLSKADYEKHKVYACEVTHQGLSSPVTKSFNRGEC
heavy 2: DVRLQESGPGLVKPSQSLSLTCSVTGYSITNSYYWNWIRQFPGNKLEWMVYIGYDGSNNYNPSLKNRISITRDTSKNQFFLKLNSVTTEDTATYYCARATYYGNYRGFAYWGQGTLVTVSAASTKGPSVFPLAPSSKSTSGGTAALGCLVKDYFPEPVTVSWNSGALTSGVHTFPAVLQSSGLYSLSSVVTVPSSSLGTQTYICNVNHKPSNTKVDKRVEPKSCDKTHTCPPCPAPEAAGGPSVFLFPPKPKDTLMISRTPEVTCVVVDVSHEDPEVKFNWYVDGVEVHNAKTKPREEQYNSTYRVVSVLTVLHQDWLNGKEYKCKVSNKALGAPIEKTISKAKGQPREPQVYTLPPSREEMTKNQVSLTCLVKGFYPSDIAVEWESNGQPENNYKTTPPVLDSDGSFFLYSRLTVDKSRWQQGNVFSCSVMHEALHNHYTQKSLSLSPGK
light 2: DIRMTQTTSSLSASLGDRVTISCRASQDISNYLNWYQQKPDGTVKLLIYYTSRLHSGVPSRFSGSGSGTDYSLTISNLEQEDIATYFCQQGNTLPWTFGGGTKLEIKRTVAAPSVFIFPPSDEQLKSGTASVVCLLNNFYPREAKVQWKVDNALQSGNSQESVTEQDSKDSTYSLSSTLTLSKADYEKHKVYACEVTHQGLSSPVTKSFNRGEC
notes: Made by controlled Fab-arm exchange of the two parental IgG1 kappa antibodies; also called anti-FH x anti-DNP

binding result [2]: binds
B2: Anti-FH F405L LALAPG, Anti-HLA I K409R LALAPG (bispecific antibody, human IgG1, kappa, L234A L235A)
heavy 1: EVQLQQSGPELVKPGASVKISCKASGYSFTGYFIHWVKQSHVKSLEWFGRINPYNGATDYNQNFKDKAILTIDESSSTAYMEIHSLTSDDSAVYYCARGLFLDYWGQGTTLTVSSASTKGPSVFPLAPSSKSTSGGTAALGCLVKDYFPEPVTVSWNSGALTSGVHTFPAVLQSSGLYSLSSVVTVPSSSLGTQTYICNVNHKPSNTKVDKRVEPKSCDKTHTCPPCPAPEAAGGPSVFLFPPKPKDTLMISRTPEVTCVVVDVSHEDPEVKFNWYVDGVEVHNAKTKPREEQYNSTYRVVSVLTVLHQDWLNGKEYKCKVSNKALGAPIEKTISKAKGQPREPQVYTLPPSREEMTKNQVSLTCLVKGFYPSDIAVEWESNGQPENNYKTTPPVLDSDGSFLLYSKLTVDKSRWQQGNVFSCSVMHEALHNHYTQKSLSLSPGK
light 1: DILMTQSPSSMSVSLGDTVSITCHASQGITSNIGWLQQKPGKSFKGLIYHGTNLEDGVPSRFSGSGSGADYSLTISSLESEDFADYYCVQYAQFPWTFGGGTKLEIKRTVAAPSVFIFPPSDEQLKSGTASVVCLLNNFYPREAKVQWKVDNALQSGNSQESVTEQDSKDSTYSLSSTLTLSKADYEKHKVYACEVTHQGLSSPVTKSFNRGEC
heavy 2: QVQLKQSGPGLVQPSQSLSLTCTVSGFSLTSYGVHWVRQPPGKGLEWLGVIWSGGSTDYNAAFISRLSIRKDNSKSQVFFKMNSLQADDTAIYYCARTFTTSTSAWFAYWGQGTLVTVSAASTKGPSVFPLAPSSKSTSGGTAALGCLVKDYFPEPVTVSWNSGALTSGVHTFPAVLQSSGLYSLSSVVTVPSSSLGTQTYICNVNHKPSNTKVDKRVEPKSCDKTHTCPPCPAPEAAGGPSVFLFPPKPKDTLMISRTPEVTCVVVDVSHEDPEVKFNWYVDGVEVHNAKTKPREEQYNSTYRVVSVLTVLHQDWLNGKEYKCKVSNKALGAPIEKTISKAKGQPREPQVYTLPPSREEMTKNQVSLTCLVKGFYPSDIAVEWESNGQPENNYKTTPPVLDSDGSFFLYSRLTVDKSRWQQGNVFSCSVMHEALHNHYTQKSLSLSPGK
light 2: SIVMTQTPKFLLVSAGDRVTITCKASQSVSNDVAWYQQKPGQSPKLLIYYASNRYTGVPDRFTGSGYGTDFTFTISTVQAEDLAVYFCQQDYSSPPWTFGGGTKLEIRRTVAAPSVFIFPPSDEQLKSGTASVVCLLNNFYPREAKVQWKVDNALQSGNSQESVTEQDSKDSTYSLSSTLTLSKADYEKHKVYACEVTHQGLSSPVTKSFNRGEC
notes: Made by controlled Fab-arm exchange; also called anti-FH x anti-HLA I

binding result [3]: binds
B3: Anti-C4BP F405L LALAPG, Anti-biotin K409R LALAPG (bispecific antibody, human IgG1, kappa, L234A L235A)
heavy 1: EVQLVESGGGLVKPGGSLKLSCAVSGFIFSDYYMYWVRQTPEKRLEWVATISDGGVYTYYPDSMKGRFTISRDNAKNNLYLQMSSLKSEDTAMYYCVRGDYYGNSLDYWGQGTSVTVSSASTKGPSVFPLAPSSKSTSGGTAALGCLVKDYFPEPVTVSWNSGALTSGVHTFPAVLQSSGLYSLSSVVTVPSSSLGTQTYICNVNHKPSNTKVDKRVEPKSCDKTHTCPPCPAPEAAGGPSVFLFPPKPKDTLMISRTPEVTCVVVDVSHEDPEVKFNWYVDGVEVHNAKTKPREEQYNSTYRVVSVLTVLHQDWLNGKEYKCKVSNKALGAPIEKTISKAKGQPREPQVYTLPPSREEMTKNQVSLTCLVKGFYPSDIAVEWESNGQPENNYKTTPPVLDSDGSFLLYSKLTVDKSRWQQGNVFSCSVMHEALHNHYTQKSLSLSPGK
light 1: DVVMTQTPLTLSITIGQPASISCKSSQSLLDGDGKTYLNWLLQRPGQSPKRLIYLVSKLDSGVPDRFTGSGSGTDFTLKISRVEAEDLGVYYCCQGTHFPWTFGRGTKLEIKRTVAAPSVFIFPPSDEQLKSGTASVVCLLNNFYPREAKVQWKVDNALQSGNSQESVTEQDSKDSTYSLSSTLTLSKADYEKHKVYACEVTHQGLSSPVTKSFNRGEC
heavy 2: QVKLQESGPGLVAPSQSLSITCTVSGFSLTAYGVDWVRQPPGKGLEWLGVIWGGGRTNYNSGLMSRLSIRKDNSKSQVFLTMNSLQTDDTAKYYCVKHTNWDGGFAYWGQGTTVTVSSASTKGPSVFPLAPSSKSTSGGTAALGCLVKDYFPEPVTVSWNSGALTSGVHTFPAVLQSSGLYSLSSVVTVPSSSLGTQTYICNVNHKPSNTKVDKRVEPKSCDKTHTCPPCPAPEAAGGPSVFLFPPKPKDTLMISRTPEVTCVVVDVSHEDPEVKFNWYVDGVEVHNAKTKPREEQYNSTYRVVSVLTVLHQDWLNGKEYKCKVSNKALGAPIEKTISKAKGQPREPQVYTLPPSREEMTKNQVSLTCLVKGFYPSDIAVEWESNGQPENNYKTTPPVLDSDGSFFLYSRLTVDKSRWQQGNVFSCSVMHEALHNHYTQKSLSLSPGK
light 2: DVVMTQSPLSLPVSLGDQASISCRSGQGLVYSNGDTYLHWYLQKPGQSPKLLIYKVSNRFSGVPDRFSGSGSGTDFTLKISRVEAEDLGVYFCSQSTHFPFTFGSGTKLEIKRTVAAPSVFIFPPSDEQLKSGTASVVCLLNNFYPREAKVQWKVDNALQSGNSQESVTEQDSKDSTYSLSSTLTLSKADYEKHKVYACEVTHQGLSSPVTKSFNRGEC
notes: Made by controlled Fab-arm exchange; also called anti-C4BP x anti-biotin
